Experiment [1] concerns the target T1, Extant Strep-NifD2K2 (dinitrogenase, MoFe protein), Azotobacter vinelandii strain DJ2102 (Azotobacter vinelandii) (UniProt P07328).
T1 sequence 1: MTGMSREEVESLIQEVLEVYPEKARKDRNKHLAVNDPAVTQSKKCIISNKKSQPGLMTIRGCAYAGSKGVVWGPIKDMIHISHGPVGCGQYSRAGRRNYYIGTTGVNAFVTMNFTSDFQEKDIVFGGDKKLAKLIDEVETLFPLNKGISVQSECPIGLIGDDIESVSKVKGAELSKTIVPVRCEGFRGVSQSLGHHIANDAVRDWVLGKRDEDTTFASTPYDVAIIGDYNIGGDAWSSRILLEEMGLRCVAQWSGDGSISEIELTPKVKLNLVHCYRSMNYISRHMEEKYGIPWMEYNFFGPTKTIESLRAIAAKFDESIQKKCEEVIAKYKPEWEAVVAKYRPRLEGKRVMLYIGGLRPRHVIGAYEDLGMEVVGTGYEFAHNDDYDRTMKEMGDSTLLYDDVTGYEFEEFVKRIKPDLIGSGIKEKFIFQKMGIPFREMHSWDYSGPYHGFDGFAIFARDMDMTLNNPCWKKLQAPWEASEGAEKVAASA
T1 sequence 2: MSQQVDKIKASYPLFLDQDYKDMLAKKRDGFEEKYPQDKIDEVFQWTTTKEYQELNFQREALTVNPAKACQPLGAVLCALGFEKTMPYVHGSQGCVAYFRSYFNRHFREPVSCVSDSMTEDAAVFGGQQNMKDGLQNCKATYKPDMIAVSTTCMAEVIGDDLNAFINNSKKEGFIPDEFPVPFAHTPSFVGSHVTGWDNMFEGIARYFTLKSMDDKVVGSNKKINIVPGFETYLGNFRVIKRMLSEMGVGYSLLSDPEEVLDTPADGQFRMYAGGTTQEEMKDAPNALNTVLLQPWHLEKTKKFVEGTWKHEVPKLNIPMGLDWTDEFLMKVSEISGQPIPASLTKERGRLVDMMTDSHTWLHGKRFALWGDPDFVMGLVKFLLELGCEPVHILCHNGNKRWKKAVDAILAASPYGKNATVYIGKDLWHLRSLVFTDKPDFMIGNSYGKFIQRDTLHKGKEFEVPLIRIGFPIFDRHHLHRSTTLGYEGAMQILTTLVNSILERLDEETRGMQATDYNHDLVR

Experiment [2] addresses T2, Extant Strep-II-tagged NifD (nitrogenase molybdenum-iron protein alpha chain), Azotobacter vinelandii strain … (Azotobacter vinelandii, UniProt P07328 1-492).
T2 construct: nitrogenase molybdenum-iron protein alpha chain NifD, Azotobacter vinelandii, UniProtKB P07328; expressed from the A. vinelandii genome; The end that carries the Strep-II tag is stated only for the ancestral NifD (N-terminus); also called Strep-II-tagged WT NifD; D subunit
T2 sequence (looked up): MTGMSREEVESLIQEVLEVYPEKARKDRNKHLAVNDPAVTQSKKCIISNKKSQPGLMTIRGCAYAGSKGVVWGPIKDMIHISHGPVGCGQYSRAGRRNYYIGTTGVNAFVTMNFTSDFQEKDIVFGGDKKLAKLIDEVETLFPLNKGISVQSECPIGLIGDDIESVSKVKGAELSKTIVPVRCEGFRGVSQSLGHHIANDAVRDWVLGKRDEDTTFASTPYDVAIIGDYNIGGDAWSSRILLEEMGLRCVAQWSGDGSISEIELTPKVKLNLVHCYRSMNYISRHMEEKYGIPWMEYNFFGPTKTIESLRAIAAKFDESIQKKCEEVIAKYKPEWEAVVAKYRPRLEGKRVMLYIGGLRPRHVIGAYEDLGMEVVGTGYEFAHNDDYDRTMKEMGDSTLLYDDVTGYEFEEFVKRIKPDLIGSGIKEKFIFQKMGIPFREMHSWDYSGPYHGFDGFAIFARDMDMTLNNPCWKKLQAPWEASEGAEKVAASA
The experiment can be described thus: co-purification (Strep-Tactin affinity chromatography) with densitometry of SDS-PAGE bands; Strep-II-tagged NifD captured on Strep-Tactin from A. vinelandii cells; NifK found with it on SDS-PAGE (Coomassie blue); anaerobic handling. As to conditions: partners not purified.

In the case of “Extant NifH2 (dinitrogenase reductase, nitrogenase iron protein 1), Azotobacter vinelandii strain DJ884 (from UniProt P00459 2-290) (enzyme)”, in experiment [1], the inorganic phosphate released per electron transferred (Pi/e- ratio) during N2 reduction, 2 min under 1 atm N2; 0.42 µM NifD2K2 and 8.4 µM NifH2, 10 mM MgATP was 2.8 ATP/e-.

B1: Extant NifK (nitrogenase molybdenum-iron protein beta chain), Azotobacter vinelandii strain DJ2102 (enzyme, UniProt P07329 1-523, looked up)
chain: MSQQVDKIKASYPLFLDQDYKDMLAKKRDGFEEKYPQDKIDEVFQWTTTKEYQELNFQREALTVNPAKACQPLGAVLCALGFEKTMPYVHGSQGCVAYFRSYFNRHFREPVSCVSDSMTEDAAVFGGQQNMKDGLQNCKATYKPDMIAVSTTCMAEVIGDDLNAFINNSKKEGFIPDEFPVPFAHTPSFVGSHVTGWDNMFEGIARYFTLKSMDDKVVGSNKKINIVPGFETYLGNFRVIKRMLSEMGVGYSLLSDPEEVLDTPADGQFRMYAGGTTQEEMKDAPNALNTVLLQPWHLEKTKKFVEGTWKHEVPKLNIPMGLDWTDEFLMKVSEISGQPIPASLTKERGRLVDMMTDSHTWLHGKRFALWGDPDFVMGLVKFLLELGCEPVHILCHNGNKRWKKAVDAILAASPYGKNATVYIGKDLWHLRSLVFTDKPDFMIGNSYGKFIQRDTLHKGKEFEVPLIRIGFPIFDRHHLHRSTTLGYEGAMQILTTLVNSILERLDEETRGMQATDYNHDLVR
notes: nitrogenase molybdenum-iron protein beta chain NifK, Azotobacter vinelandii, UniProtKB P07329; also called K subunit
As for B1, in experiment [2], the “stoichiometry N” value is 0.93 D:K.

The values are drawn from article PMC11253609, “Ancient nitrogenases are ATP dependent” (mBio, 2024).
